Source: patent US20130273076A1 (Harvard, published 2013)
Changes are numbered by the printed parent chain. Names may count otherwise.

B1: endogenous mouse Ephexin5 (neurons, brain lysates) (enzyme, UniProt Q5FWH6 1-849, looked up)
chain: MSAQSLPAATPPTLKPPRIIRPRPPSRHRAPHSPGPLHNGSSPKALPQISNDASASVCTSIFWEPPTASLKPPALLPPSVSRTSLDSQTSPDSPSSTPSPSPVSRRSISPEPAPCSPVPPPKPSGSSRTPLPSGPTPLQDGSASAPGTVRRLAGKFEWGAEGKAQSSDSLERCSQGSTEVNGEKETPEAALSGNGSQENGTPDAALACPPCCPCVCHVAKPGLELRWVPVGSSEDILRIPCRASPLRASRSRINPPVISHPPVVLTSYRSTAERKLLPPLKPPKPTKVRQDISTSEELPQPDLKLPSEDGIQTATKAWEGDRPEGAPLNAPPVALEGREEEGLDGLKGLQWELPLQDEPLYQTYRAAVLSEELWGVGEDGGPSPANPGEAPTFSRLPGPRNTLWQELPAVRGSGLLESLSPQERRMQESLFEVVTSEASYLRSLRLLTDTFVLSQALRDTLTPRDHHTLFSNVQRVQSVSERFLGTLLSRVRSSPHITDLCDVVHAHAVGPFFVYVDYVRNQQYQEETYSRLMDTNVRFSAELRRLQSLPKCERLPLPSFLLLPFQRITRLRMLLQNILSQTEEGSSRQENAQKALGAVSKIIERCSAEVGRMKQTEELIRLTQRLRFHKVKALPLVSWSRRLELQGELTELGCRRGGVLFTSRPRFTPLCLLLFSDLLLITQPKSGQRLQVLDYAHRSLVQAQQVPDPSGPPTFRLSLLSNHQGRPTHRLLQAASLSDMQRWLGAFPTPGPLPCSPDTIYEDCECSQELCSEPSTPSKTEGQSLESKAPRKHLHKNPEGWLKGLPGAFPAQLVCEVTGEHERRKHLRQHQKLLEAVGPSSGTPDTPQP
B2: Ephexin5-Y361F-Myc (protein)
chain: B1 chain with Y361F

Assays:
[1] = target: Flag-EphB2-kinase dead (KD)
[2] = target: EphA2 (expressed in HEK293T cells)
[3] = target: Flag-EphB2-Acyto (cytoplasmic truncated version of EphB2)
[4] = target: endogenous RhoA of mouse brain (mouse, UniProt Q9QUI0 1-190); assay: cell-based or functional assay
Sequence of endogenous RhoA of mouse brain (Q9QUI0 1-190 limits assumed): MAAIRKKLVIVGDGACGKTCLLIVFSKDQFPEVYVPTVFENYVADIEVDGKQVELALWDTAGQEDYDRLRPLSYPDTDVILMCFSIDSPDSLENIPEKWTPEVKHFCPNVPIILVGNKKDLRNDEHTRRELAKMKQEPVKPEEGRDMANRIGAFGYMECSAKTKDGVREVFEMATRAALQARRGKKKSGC

Sequence of EphA2 (expressed in HEK293T cells) (P29317 whole entry, the tested form may be a part): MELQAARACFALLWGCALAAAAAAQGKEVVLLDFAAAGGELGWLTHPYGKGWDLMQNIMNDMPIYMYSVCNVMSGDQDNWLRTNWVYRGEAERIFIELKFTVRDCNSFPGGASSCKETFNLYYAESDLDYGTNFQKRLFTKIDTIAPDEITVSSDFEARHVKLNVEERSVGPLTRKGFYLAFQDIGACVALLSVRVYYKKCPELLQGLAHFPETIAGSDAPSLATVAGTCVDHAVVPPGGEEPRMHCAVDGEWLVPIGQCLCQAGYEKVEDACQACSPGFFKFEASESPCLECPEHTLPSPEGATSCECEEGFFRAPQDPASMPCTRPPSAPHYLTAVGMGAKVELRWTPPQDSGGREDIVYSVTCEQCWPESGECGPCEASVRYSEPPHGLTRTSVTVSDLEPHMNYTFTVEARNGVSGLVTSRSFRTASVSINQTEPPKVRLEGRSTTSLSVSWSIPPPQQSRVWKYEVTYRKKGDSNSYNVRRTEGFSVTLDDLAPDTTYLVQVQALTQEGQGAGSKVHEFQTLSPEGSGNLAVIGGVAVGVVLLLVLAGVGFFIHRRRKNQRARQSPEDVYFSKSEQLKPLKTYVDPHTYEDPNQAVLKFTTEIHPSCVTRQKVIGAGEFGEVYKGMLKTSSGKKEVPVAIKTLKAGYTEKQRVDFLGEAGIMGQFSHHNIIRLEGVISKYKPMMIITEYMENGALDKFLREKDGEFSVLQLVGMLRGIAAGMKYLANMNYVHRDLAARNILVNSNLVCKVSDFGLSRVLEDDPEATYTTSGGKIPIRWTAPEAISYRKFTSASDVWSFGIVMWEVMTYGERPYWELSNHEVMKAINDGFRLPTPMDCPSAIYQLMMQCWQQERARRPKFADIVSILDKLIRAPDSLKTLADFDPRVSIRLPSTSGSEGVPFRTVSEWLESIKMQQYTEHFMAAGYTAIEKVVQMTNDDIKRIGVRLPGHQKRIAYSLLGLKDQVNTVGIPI

Binder	phosphorylation of Ephexin5 at Y361 (anti-pY361 immunoblot) [1]	phosphorylation of Ephexin5 at Y361 (anti-pY361 immunoblot) [2]	phosphorylation of Ephexin5 at Y361 (anti-pY361 immunoblot) [3]	phosphorylation of Ephexin5 at Y361 (anti-pY361 immunoblot) (Flag-EphA4)	phosphorylation of Ephexin5 at Y361 (anti-pY361 immunoblot) (Flag-EphB2)	tyrosine phosphorylation of Ephexin5 (anti-phosphotyrosine 4G10 immunoblot) (Flag-EphB2)	anti-RhoA signal from RBD pulldown assays, Ephexin5-/- against wild type brain lysates [4]
B1	when wild type EphB2, but not a kinase dead or cytoplasmic truncated version of EphB2, was expressed in HEK293T cells together with Ephexin5, Ephexin5 become tyrosine phosphorylated at Y361	when EphA4 or EphA2 were expressed in HEK293T cells they detected little to no phosphorylation of Ephexin5 at Y361	when wild type EphB2, but not a kinase dead or cytoplasmic truncated version of EphB2, was expressed in HEK293T cells together with Ephexin5, Ephexin5 become tyrosine phosphorylated at Y361	when EphA4 or EphA2 were expressed in HEK293T cells they detected little to no phosphorylation of Ephexin5 at Y361	when wild type EphB2, but not a kinase dead or cytoplasmic truncated version of EphB2, was expressed in HEK293T cells together with Ephexin5, Ephexin5 become tyrosine phosphorylated at Y361	in the presence of EphB2, Ephexin5-WT, but not Ephexin5-Y361F, become tyrosine phosphorylated	4 fold
B2						in the presence of EphB2, Ephexin5-WT, but not Ephexin5-Y361F, become tyrosine phosphorylated	
